Assay results as given in patent US20180086790A1.
Where two headings read alike, the source gives them in different places.

Columns and labels:
[1] = target: pheromone-biosynthesis-activating neuropeptide receptor (fire ant PBAN-R) (fire ant (Solenopsis invicta)); test: phage display selection on Sf9 cells expressing PBAN-R, 3-4 rounds; count of sequenced clones
[2] = target: pheromone-biosynthesis-activating neuropeptide receptor (fire ant PBAN-R) (fire ant (Solenopsis invicta)); test: as above; remark: listed apart in the source

| Molecule | Abundance of phage clones [1] | Abundance of phage clones [2] |
| --- | --- | --- |
| ERVGTHY (SEQ ID NO: 24) (peptide) | 1 clones |  |
| LPWQIHN (SEQ ID NO: 29) (peptide) | 1 clones |  |
| QSIGTHF (SEQ ID NO: 19) (peptide) | 1 clones |  |
| ERVGTHF (SEQ ID NO: 20) (peptide) | 1 clones |  |
| QQTKNYY (SEQ ID NO: 32) (peptide) | 1 clones |  |
| IQIGTHF (SEQ ID NO: 18) (peptide) | 1 clones |  |
| SQLPWYS (SEQ ID NO: 34) (peptide) | 1 clones |  |
| HSRVSGT (SEQ ID NO: 21) (peptide) | 1 clones |  |
| TQIGTHF (SEQ ID NO: 17) (peptide) | 1 clones |  |
| YSSPSHF (SEQ ID NO: 23) (peptide) | 1 clones |  |
| NTGSPYE (SEQ ID NO: 36) (peptide) | 1 clones |  |
| TNANHYF (SEQ ID NO: 31) (peptide) | 1 clones |  |
| TXVGSHF (SEQ ID NO: 15) (peptide) | 1 clones |  |
| TNGDSAR (SEQ ID NO: 33) (peptide) | 1 clones |  |
| IHXGTHF (SEQ ID NO: 22) (peptide) | 1 clones |  |
| IKIGSHY (SEQ ID NO: 26) (peptide) | 1 clones |  |

| Molecule | Abundance of phage clones [1] | Abundance of phage clones [2] |
| --- | --- | --- |
| IKVGPHY (SEQ ID NO: 25) (peptide) | 1 clones |  |
| QRIGLHY (SEQ ID NO: 27) (peptide) | 1 clones |  |
| VSRTSHL (SEQ ID NO: 28) (peptide) | 1 clones |  |
| NTGGSMA (SEQ ID NO: 35) (peptide) | 1 clones |  |
| LPMTKHV (SEQ ID NO: 30) (peptide) | 1 clones |  |
| IHIGSHF (SEQ ID NO: 16) (peptide) | 1 clones |  |
| CIVQGSHFC (loop-constrained by a pair of flanking cysteine (C) residues) [… (SEQ ID NO: 10)] |  | 2 clones |
| CVKQGTHFC (loop-constrained by a pair of flanking cysteine (C) residues) [… (SEQ ID NO: 9)] |  | 2 clones |
| CIQQGSHFC (loop-constrained by a pair of flanking cysteine (C) residues) [… (SEQ ID NO: 4)] |  | 3 clones |
| CLKIGSHFC (Cysteine-Cysteine S-S bond at the N- and C-terminal ends) [… (SEQ ID NO: 3)] |  | 7 clones |
| CMARYMSAC (Cysteine-Cysteine S-S bond at the N- and C-terminal ends) [… (SEQ ID NO: 11)] |  | 2 clones |
| CIVQGSHFC (loop-constrained by a pair of flanking cysteine (C) residues) [… (SEQ ID NO: 7)] |  | 2 clones |
| CRGATPMSC (Cysteine-Cysteine S-S bond at the N- and C-terminal ends) [… (SEQ ID NO: 12)] |  | 2 clones |
| CVKLGSHFC (Cysteine-Cysteine S-S bond at the N- and C-terminal ends) [… (SEQ ID NO: 6)] |  | 2 clones |
| CQSINGHFC (loop-constrained by a pair of flanking cysteine (C) residues) [… (SEQ ID NO: 8)] |  | 2 clones |
| CERVGSHFC (loop-constrained by a pair of flanking cysteine (C) residues) [… (SEQ ID NO: 5)] |  | 3 clones |
